Reference: PMC7162537

Target: BRCA1 (UniProt P38398)
Experiment: anti-GFP co-IP from nuclear extract, blot
Settings: reference: wild type GFP-CtIP; sites S327

CtIP (from UniProt Q99708) S327A
binding against the reference: lost
